Measurements reported in US20250223354A1 (BIOTHEUS, published 2025).
Like-named read-outs stand apart in the source and are kept apart here.

Columns and labels:
[1] = target: T1, human TIGIT expressed on cells (human, UniProt Q495A1 22-244); experiment: flow cytometry, CHO-huTIGIT cells
T1 construct: whole, on cells; cDNA encoding human TIGIT in pCHO1.0 for CHO cells; also called CHO-huTIGIT cells
T1 sequence (looked up): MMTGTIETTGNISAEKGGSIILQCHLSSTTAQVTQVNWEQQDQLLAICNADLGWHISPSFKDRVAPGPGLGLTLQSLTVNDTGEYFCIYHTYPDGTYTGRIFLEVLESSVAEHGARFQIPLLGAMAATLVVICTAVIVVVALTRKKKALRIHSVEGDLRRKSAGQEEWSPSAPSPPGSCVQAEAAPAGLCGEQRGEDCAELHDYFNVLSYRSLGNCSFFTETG
Description: (§1) Specifically, CHO cells overexpressing human TIGIT (CHO-huTIGIT cells), CHO cells overexpressing cynomolgus TIGIT (CHO-cynoTIGIT cells) and CHO cells overexpressing mouse TIGIT (CHO-muTIGIT cells) were generated by transfection of the pCHO1.0 vector (purchased from Invitrogen) with cDNA encoding human TIGIT, cynomolgus TIGIT and mouse TIGIT cloned into the multiple cloning site (MCS), respectively, followed by pressure screening. The overexpressing cells were expanded and adjusted to an appropriate cell density, and added to a 96-well flow cytometry plate. After centrifugation, the cells were added with a gradiently diluted sample to be tested, and incubated at 4° C. for 30 minutes. The cells were washed twice with PBS, and added with a fluorescent secondary antibody correspondingly diluted to an appropriate concentration, then incubated at 4° C. for 30 minutes, and washed twice with PBS. Cells were resuspended with PBS, and detected on a CytoFlex flow cytometer, and the corresponding MFI was calculated. Graphpad software was used for graphical analysis to obtain EC₅₀ values.

[2] = target: T2, mouse TIGIT overexpressed on CHO cells (mouse, UniProt P86176 29-249); experiment: flow cytometry, CHO-muTIGIT cells
T2 construct: whole, on cells; also called CHO-muTIGIT cells
T2 sequence (looked up): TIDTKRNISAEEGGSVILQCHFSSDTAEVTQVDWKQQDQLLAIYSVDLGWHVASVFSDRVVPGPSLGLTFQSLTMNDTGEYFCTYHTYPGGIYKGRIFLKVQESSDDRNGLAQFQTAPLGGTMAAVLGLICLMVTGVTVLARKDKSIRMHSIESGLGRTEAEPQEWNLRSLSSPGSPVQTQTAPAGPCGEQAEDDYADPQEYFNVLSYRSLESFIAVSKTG
Description: as §1

[3] = target: T3, cynomolgus TIGIT overexpressed on CHO cells (cynomolgus, UniProt A0A7N9I9V4 89-312); experiment: flow cytometry, CHO-cynoTIGIT cells
T3 construct: whole, on cells; also called CHO-cynoTIGIT cells
Description: as §1

[4] = target: T4, mouse TIGIT-his protein (mouse, UniProt P86176 29-148); experiment: BLI (ForteBio), IgG on AHQ sensor, monovalent
T4 construct: not shown: his tag
T4 sequence: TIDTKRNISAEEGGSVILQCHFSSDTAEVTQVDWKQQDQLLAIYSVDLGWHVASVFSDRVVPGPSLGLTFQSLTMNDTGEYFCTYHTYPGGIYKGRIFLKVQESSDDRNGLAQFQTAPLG
Experimental: (§2) The antibody-loaded sensor was incubated in 100 nM TIGIT-his antigen to the plateau phase, and then the sensor was transferred to an analysis buffer and incubated for at least 2 minutes for measuring dissociation rate. The kinetic analysis was performed using a 1:1 binding model.

[5] = target: T5, human TIGIT-his protein (human, UniProt Q495A1 22-141); experiment: BLI (ForteBio), IgG on AHQ sensor, 100 nM TIGIT-his, monovalent, 1:1 model
T5 construct: not shown: his tag
T5 sequence: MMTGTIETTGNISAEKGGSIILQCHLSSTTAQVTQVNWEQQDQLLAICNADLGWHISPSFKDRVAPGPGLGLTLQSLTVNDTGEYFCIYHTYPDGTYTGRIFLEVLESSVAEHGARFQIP
Experimental: (§3) Biofilm layer optical interference technology (ForteBio) was used to determine the binding and dissociation […] values of the anti-TIGIT monoclonal antibodies obtained in Example 1 to human, cynomolgus monkey and mouse TIGIT. Fortebio affinity measurements were performed according to existing methods (Este, P et al., High throughput solution-based measurement of antibody-antigen affinity and epitope binning. Mabs, 2013.5(2): p 270-8).
as §2

[6] = target: T6, cynomolgus monkey TIGIT-his protein (cynomolgus monkey); experiment: as above
T6 construct: also called Cynomolgus TIGIT-his; not shown: his tag
Experimental: as §3, §2

[7] = target: T1, human TIGIT expressed on cells; experiment: flow cytometry, competition with human CD155-mouse IgG2a Fc (2 ug/mL) on CHO-huTIGIT cells
Experimental: (§4) Specifically, the CHO-huTIGIT cells were expanded and adjusted to a cell density of 2×10⁶ cells/mL, added to a 96-well flow plate at 100 μL/well, and centrifuged for later use. The purified monoclonal antibodies were diluted 3-fold with PBS starting at 400 nM for a total of 12 concentration gradients. The diluted sample was added at 60 μL/well to the cells-carrying 96-well flow plate, and incubated at 4° C. for 30 minutes. […] APC-conjugated goat anti-mouse IgG antibody diluted 100-fold with PBS was added at 100 μL/well, incubated at 4° C. for 30 minutes, and washed twice with PBS. Cells were resuspended with PBS at 100 μL/well, and detected on a CytoFlex flow cytometer, and the corresponding MFI was calculated.

[8] = target: T1, human TIGIT expressed on cells; experiment: flow cytometry on activated human primary T cells (TIGIT), readout positive cell (%); unit from the concentration axis
Description: The binding activity of the anti-TIGIT antibody of the present invention to TIGIT on the surface of activated T cells was detected based on the flow cytometry detection method.
Specifically, human PBMC were sorted according to the experimental protocol provided by […] Company (stemcell, Cat. No.: #17951C) to obtain human total T cells. […] The activated T cells were adjusted to an appropriate cell density and added to a 96-well flow cytometry plate. After centrifugation, the gradiently diluted sample to be tested was added, and incubated at 4° C. for 30 minutes. Washing was carried out twice with PBS, and a fluorescent secondary antibody diluted to an appropriate concentration was added, incubated at 4° C. for 30 minutes, and washed twice with PBS. […]

[9] = target: T1, human TIGIT expressed on cells; experiment: flow cytometry on CHO cells overexpressing human TIGIT, median fluorescence intensity PE-A; unit from the concentration axis
Description: as §1

[10] = target: T3, cynomolgus TIGIT overexpressed on CHO …; experiment: flow cytometry on CHO cells overexpressing cynomolgus TIGIT, median fluorescence intensity PE-A; unit from the concentration axis
Description: as §1

[11] = target: T1, human TIGIT expressed on cells; experiment: flow cytometry blocking assay: binding of human CD155 protein with mouse IgG2a Fc tag to CHO cells overexpressing human TIGIT, median fluorescence intensity APC-A; unit from the concentration axis
Experimental: as §4

[12] = target: T1, human TIGIT expressed on cells; experiment: flow cytometry, CHO-huTIGIT cells; remark: listed apart in the source
Description: as §1, with “(CHO-huTIGITcells),” for “(CHO-huTIGIT cells),”

[13] = target: T2, mouse TIGIT overexpressed on CHO cells; experiment: flow cytometry, CHO-muTIGIT cells; remark: listed apart in the source
Description: as §1, with “(CHO-huTIGITcells),” for “(CHO-huTIGIT cells),”

[14] = target: T3, cynomolgus TIGIT overexpressed on CHO …; experiment: flow cytometry, CHO-cynoTIGIT cells; remark: listed apart in the source
Description: as §1, with “(CHO-huTIGITcells),” for “(CHO-huTIGIT cells),”

[15] = target: T5, human TIGIT-his protein; experiment: BLI (ForteBio), antibody on AHQ sensor, 100 nM antigen, monovalent, 1:1 model
Experimental: (§5) The antibody-loaded sensor was incubated in 100 nM target antigen to the plateau phase, and then the sensor was transferred to an analysis buffer and incubated for at least 2 minutes for measuring dissociation rate. The kinetic analysis was performed using a 1:1 binding model.

[16] = target: T6, cynomolgus monkey TIGIT-his protein; experiment: as above
Experimental: as §5

[17] = target: T1, human TIGIT expressed on cells; experiment: flow cytometry, competition with human CD155-mouse IgG2a Fc (2 ug/mL) on CHO-huTIGIT cells; remark: listed apart in the source
Experimental: as §4, with “antibody was” for “monoclonal antibodies were”

[18] = target: T2, mouse TIGIT overexpressed on CHO cells; experiment: flow cytometry, competition with mouse CD155-mouse IgG2a Fc (2 ug/mL) on CHO-muTIGIT cells
Experimental: as §4, with “The CHO-muTIGIT” for “Specifically, the CHO-huTIGIT”, “antibody was” for “monoclonal antibodies were”, “calculated. Graphpad software was used for graphing analysis to obtain IC₅₀ values.” for “calculated.”

T3 sequence (A0A7N9I9V4 entry or part of it): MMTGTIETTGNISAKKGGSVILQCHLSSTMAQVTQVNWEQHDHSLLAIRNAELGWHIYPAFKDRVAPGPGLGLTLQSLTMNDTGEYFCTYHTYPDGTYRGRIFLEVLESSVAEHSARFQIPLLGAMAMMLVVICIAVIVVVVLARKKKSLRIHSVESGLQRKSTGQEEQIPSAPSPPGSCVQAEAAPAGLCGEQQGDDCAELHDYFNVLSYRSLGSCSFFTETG
T6 sequence (chain, as listed by the source): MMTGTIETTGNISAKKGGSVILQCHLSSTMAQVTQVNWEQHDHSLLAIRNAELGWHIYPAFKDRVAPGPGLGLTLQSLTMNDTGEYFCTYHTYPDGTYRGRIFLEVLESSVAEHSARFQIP

| Binder | EC50 [1] | binding result [2] | EC50 [3] | binding result [4] | Kd [5] | Kd [6] | IC50 [7] | EC50 [8] | EC50 [9] | EC50 [10] | IC50 [11] | EC50 [12] | binding result [13] | EC50 [14] | Kd [15] | Kd [16] | IC50 [17] | EC50 [13] | IC50 [18] |
| --- | --- | --- | --- | --- | --- | --- | --- | --- | --- | --- | --- | --- | --- | --- | --- | --- | --- | --- | --- |
| anti-TIGIT monoclonal antibody 55812-G1 (antibody, human IgG1, V domains shown, Wild-type human IgG1 heavy chain constant region, human kappa light chain constant region; HEK293) VH: QVQLVQSGAEVKKPGASVKVSCKASGYAFTGYYMHWVRQAPGQGLEWMGSIIPFSGEANYAQKFQGRVTMTRDTSISTAYMELSRLRSDDTAVYYCARGPGSLDRLWYYYYGMDVWGQGTTVTVSS VL: not shown | 660 pM | no binding | 1130 pM | no binding (tested: 100 nM) | 3500 pM | 24100 pM | 360 pM | 51.8 pM | 658 pM | 1120 pM | 356 pM |  |  |  |  |  |  |  |  |
| anti-TIGIT monoclonal antibody 55812-G1LALA (antibody, human IgG1, V domains shown, Human IgG1 heavy chain constant region modified by L234A, L235A; human kappa light chain constant region; HEK293) VH: QVQLVQSGAEVKKPGASVKVSCKASGYAFTGYYMHWVRQAPGQGLEWMGSIIPFSGEANYAQKFQGRVTMTRDTSISTAYMELSRLRSDDTAVYYCARGPGSLDRLWYYYYGMDVWGQGTTVTVSS VL: not shown | 700 pM | no binding | 1280 pM | no binding (tested: 100 nM) | 3400 pM | 22100 pM | 320 pM | 57 pM | 698 pM | 1280 pM | 319 pM |  |  |  |  |  |  |  |  |
| anti-TIGIT monoclonal antibody ADI-55812 (antibody, V domains shown) VH: QVQLVQSGAEVKKPGASVKVSCKASGYAFTGYYMHWVRQAPGQGLEWMGSIIPFSGEANYAQKFQGRVTMTRDTSISTAYMELSRLRSDDTAVYYCARGPGSLDRLWYYYYGMDVWGQGTTVTVSS VL: not shown |  |  |  |  |  |  |  |  |  |  |  | 964 pM | no binding | 1500 pM | 1900 pM | 34000 pM | 296 pM |  |  |
| anti-TIGIT monoclonal antibody ADI-55796 (antibody, V domains shown) VH: QLQLQESGPGLVKPAETLSLTCTVSGGSISSYDHYWTWIRQPPGKGLEWIGTVYYSGSTFHNPSLKSRVTIPVDTSKNQFSLKLSSVTAADTAVYYCARVGPDVSHPPFDYWGQGTLVTVSS VL: not shown |  |  |  |  |  |  |  |  |  |  |  | 1430 pM |  | 1000 pM | 322 pM | 3120 pM | 425 pM | 2520 pM | 889 pM |
